Results: article PMC3398199 (Molecular Cell, 2012)

Target: His-tagged human recombinant full-length NEMO (human, UniProt Q9Y6K9 1-419)
Assay: SEC

Chain of His-tagged human recombinant full-length NEMO (Q9Y6K9 whole entry): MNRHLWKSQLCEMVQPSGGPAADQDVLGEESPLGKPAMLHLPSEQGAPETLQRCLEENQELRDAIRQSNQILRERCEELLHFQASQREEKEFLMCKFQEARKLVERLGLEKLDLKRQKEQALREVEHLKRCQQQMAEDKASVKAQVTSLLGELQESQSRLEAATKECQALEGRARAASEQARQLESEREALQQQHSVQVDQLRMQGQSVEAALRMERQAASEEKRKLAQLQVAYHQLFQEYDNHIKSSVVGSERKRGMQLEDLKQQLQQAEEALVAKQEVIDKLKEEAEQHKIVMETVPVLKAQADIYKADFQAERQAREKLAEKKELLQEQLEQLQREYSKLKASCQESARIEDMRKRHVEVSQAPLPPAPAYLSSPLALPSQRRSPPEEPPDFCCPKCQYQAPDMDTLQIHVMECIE

binding result: binds
B1: recombinant FL-human IκBα (natural protein, UniProt P25963 1-317, looked up)
chain: MFQAAERPQEWAMEGPRDGLKKERLLDDRHDSGLDSMKDEEYEQMVKELQEIRLEPQEVPRGSEPWKQQLTEDGDSFLHLAIIHEEKALTMEVIRQVKGDLAFLNFQNNLQQTPLHLAVITNQPEIAEALLGAGCDPELRDFRGNTPLHLACEQGCLASVGVLTQSCTTPHLHSILKATNYNGHTCLHLASIHGYLGIVELLVSLGADVNAQEPCNGRTALHLAVDLQNPDLVSLLLKCGADVNRVTYQGYSPYQLTWGRPSTRIQQQLGQLTLENLQMLPESEDEESYDTESEFTEFTEDELPYDDCVFGGQRLTL
